In the supplement of paper PMC7877785:
± gives the uncertainty stated by the source.

Assay: self-splicing fitness, log relative to wild type (ln ratio); higher = more splicing; Tetrahymena group I intron in knt gene, E. coli kanamycin selection, DiMSum; sequences stand for … in CUCUCU…GGAGGGAAAAGUUAUCAGGCAUGCACCUGGUAGCUAGUCUUUAAACCAAUAGAUUGCAUCGGUUUAAAAGGCAAGACCGUCAAAUUGCGGGAAAGGGGUCAACAGCCGUUCAGUACCAAGUCUCAGGGGAAACUUUGAGAUGGCCUUGCAAAGGGUAUGGUAAUAAGCUGACGGACAUGGUCCUAACCACGCAGCCAAGUCCUAAGUCAACAGAUCUUCUGUUGAUAUGGAUGCAGUUCACAGACUAAAUGUCGGUCGGGGAAGAUGUAUUCUUCUCAUAAGAUAUAGUCGGACCUCUCCUUAAUGGGAGCUAGCGGAUGAAGUGAUGCAACACUGGAGCCGCUGGGAACUAAUUUGUAUGCGAAAGUAUAUUGAUUAGUUUUGGAGUACUCGUGGUCG
Outline: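 Colonies from six replicate transformations of E. coli BL21(DE3) were pooled and amplicon-sequenced on an Illumina HiSeq 2500. The library placed an intron with all eight P1ex-region nucleotides randomised inside the knt kanamycin-resistance gene on pET-22b(+), and cells grew overnight at 37°C or 30°C on LB agar with or without 25 μg/mL kanamycin (plus 100 μg/mL carbenicillin, 50 μM IPTG, 0.2% rhamnose). Fitness is the DiMSum error-weighted combination of wild-type-normalised replicate fold changes, kanamycin versus none.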

Sequence | self-splicing fitness (ln) (30 °C) | self-splicing fitness (ln) (37 °C)
CGACAGCAAUAUUACGAAUA | -2.16 ± 0.18 | -3.12 ± 0.3
CGACAGCAAUAUUACGAUCC | -0.0657 ± 0.16 | -0.196 ± 0.19
CGACAGCAAUAUUACGAUGC | -3.57 ± 0.17 | -1.92 ± 0.18
CGACAGCAAUAUUACGCAAU | -4.5 ± 0.33 | -2.81 ± 0.22
CGACAGCAAUAUUACGCACC | -0.97 ± 0.21 | -1.79 ± 0.21
CGACAGCAAUAUUACGCACU | -1.22 ± 0.09 | 0.0742 ± 0.12
CGACAGCAAUAUUACGCAGA | -2.61 ± 0.1 | -2.06 ± 0.1
CGACAGCAAUAUUACGCCCA | -1.56 ± 0.11 | -0.725 ± 0.11
CGACAGCAAUAUUACGCCCG | 0.138 ± 0.24 | 
CGACAGCAAUAUUACGCCUC | -2.24 ± 0.2 | -0.498 ± 0.2
CGACAGCAAUAUUACGCCUU | -2.4 ± 0.22 | -1.61 ± 0.23
CGACAGCAAUAUUACGCUGA | -3.49 ± 0.28 | -2.66 ± 0.28
CGACAGCAAUAUUACGCUGU | -3.04 ± 0.14 | -2.55 ± 0.15
CGACAGCAAUAUUACGGACC | -2.09 ± 0.083 | -0.0291 ± 0.11
CGACAGCAAUAUUACGGGAA | -3.44 ± 0.17 | -1.92 ± 0.099
CGACAGCAAUAUUACGGUGC | -3.61 ± 0.26 | -2.53 ± 0.16
CGACAGCAAUAUUACGUAAG | -0.425 ± 0.08 | 0.126 ± 0.095
CGACAGCAAUAUUACGUGGA | -3.38 ± 0.17 | -3.17 ± 0.18
CGACAGCAAUAUUACGUGUU | -2.38 ± 0.086 | -3.04 ± 0.17
CGAGAGCAAUAUUACGAAAA |  | -2.18 ± 0.37
CGAGAGCAAUAUUACGAAUC | -2.29 ± 0.27 | 
CGAGAGCAAUAUUACGACAA | -1.65 ± 0.39 | 
CGAGAGCAAUAUUACGACUA | -2.56 ± 0.46 | 

Sequence | self-splicing fitness (ln) (30 °C) | self-splicing fitness (ln) (37 °C)
CGAGAGCAAUAUUACGCAAC | -1.2 ± 0.34 | -2.34 ± 0.35
CGAGAGCAAUAUUACGCAGU | -1.96 ± 0.41 | -2.21 ± 0.47
CGAGAGCAAUAUUACGCCCA |  | -0.872 ± 0.36
CGAGAGCAAUAUUACGCCUA | -2.4 ± 0.36 | -0.235 ± 0.38
CGAGAGCAAUAUUACGCGUG | -1.48 ± 0.13 | -2.95 ± 0.23
CGAGAGCAAUAUUACGCUAC |  | -2.11 ± 0.4
CGAGAGCAAUAUUACGGACG | -1.25 ± 0.23 | -0.913 ± 0.42
CGAGAGCAAUAUUACGGAUU | -2.72 ± 0.39 | 
CGAGAGCAAUAUUACGGCGC | -2.76 ± 0.21 | -1.62 ± 0.21
CGAGAGCAAUAUUACGGGCG | -2.3 ± 0.14 | -1.39 ± 0.18
CGAGAGCAAUAUUACGGGUC |  | -0.826 ± 0.23
CGAGAGCAAUAUUACGUAGA | -1.62 ± 0.2 | -1.68 ± 0.3
CGAGAGCAAUAUUACGUCCU | -2.98 ± 0.39 | 
CGAGAGCAAUAUUACGUUAG | -4.23 ± 0.36 | -2.24 ± 0.29
CGAGAGCAAUAUUACGUUUU | -3.09 ± 0.24 | -2.79 ± 0.25
CGAUAGCAAUAUUACGAAAG | -0.907 ± 0.089 | -0.699 ± 0.12
CGAUAGCAAUAUUACGAUAC |  | -2.88 ± 0.41
CGAUAGCAAUAUUACGCCAC | -2.44 ± 0.44 | -0.944 ± 0.43
CGAUAGCAAUAUUACGCCCG | -1.39 ± 0.18 | -1.44 ± 0.25
CGAUAGCAAUAUUACGCCGG | -0.546 ± 0.11 | -0.0292 ± 0.14
CGAUAGCAAUAUUACGCCUA | -2.11 ± 0.22 | -1.38 ± 0.18
CGAUAGCAAUAUUACGCGCA | -0.97 ± 0.12 | -0.529 ± 0.12
CGAUAGCAAUAUUACGGAAA | -3.34 ± 0.24 | -1.53 ± 0.21
